Assay results: publication PMC5677532 (Structure (London, England : 1993), 2017)
Where “and” joins values, the source holds several entries; their conditions need not be identical. Equal values may be shown once.

B1: Bsc4 S288C, N-terminally hexahistidine-tagged (natural protein, S. cerevisiae (strain S288C), UniProt P53841 1-131, looked up)
chain: MSIVLRKSNKKNKNCITSKFYTIHIIKISTPVFRAPIAIGESPYVEWSCLQVVFRKDMVTKKTTFAQLITRLNHFLCQALKRRDSKTYILCRTAVFGAMTPFSPRKSHINNKLPMQPRKKKIVIIYVVRFH
B2: Bsc4 EC1118, C-terminally hexahistidine-tagged (natural protein, S. cerevisiae (strain EC1118), UniProt P53841 2-121, looked up)
chain: SIVLRKSNKKNKNCITSKFYTIHIIKISTPVFRAPIAIGESPYVEWSCLQVVFRKDMVTKKTTFAQLITRLNHFLCQALKRRDSKTYILCRTAVFGAMTPFSPRKSHINNKLPMQPRKKK
B3: Bsc4 S288C, C-terminally hexahistidine-tagged (natural protein, S. cerevisiae (strain S288C), UniProt P53841 2-131, looked up)
chain: SIVLRKSNKKNKNCITSKFYTIHIIKISTPVFRAPIAIGESPYVEWSCLQVVFRKDMVTKKTTFAQLITRLNHFLCQALKRRDSKTYILCRTAVFGAMTPFSPRKSHINNKLPMQPRKKKIVIIYVVRFH

Experiments:
SEC [1] = molecular target: the molecule itself; experiment: SEC
SEC [2] = molecular target: the molecule itself; experiment: SEC; remark: listed apart in the source
native MS [3] = molecular target: the molecule itself; experiment: native MS
native MS [4] = molecular target: the molecule itself; experiment: native MS; remark: listed apart in the source
SEC [5] = molecular target: the molecule itself; experiment: SEC; remark: listed apart in the source
SEC [6] = molecular target: the molecule itself; experiment: SEC; remark: listed apart in the source

| Protein | binding result (SEC [1]) | stoichiometry N (SEC [2]) | stoichiometry N (native MS [3]) | stoichiometry N (native MS [4]) | stoichiometry N (SEC [5]) | stoichiometry N (SEC [6]) |
| --- | --- | --- | --- | --- | --- | --- |
| B1 | binds |  |  |  |  |  |
| B2 |  | 4 | 7 and 8 | 2 and 6 | ≥ 2 |  |
| B3 |  |  |  |  | ≥ 2 | 2 |
